Consider two molecules from PMC11531391 (Cell, 2024).

“And” between values parts separate entries of the source, which are not always exact repeats. Equal values may be shown once.

What is called stoichiometry N is a count of units in the complex or per binding partner.

Assay [1] deals with L-TGF-β1 (latent TGF-β1 dimer, R249A, as it stands in L-TGF-β1/GARP) (human). In words: cryo-EM structure; purified L-TGF-β1/GARP or L-TGF-β3/GARP alone, 0.3 mg/ml.
Assay [2] concerns the target T1, L-TGF-β3/GARP (purified complex of latent TGF-β3 with the GARP ectodomain) (human, UniProt Q14392 20-627).
T1 chain 1: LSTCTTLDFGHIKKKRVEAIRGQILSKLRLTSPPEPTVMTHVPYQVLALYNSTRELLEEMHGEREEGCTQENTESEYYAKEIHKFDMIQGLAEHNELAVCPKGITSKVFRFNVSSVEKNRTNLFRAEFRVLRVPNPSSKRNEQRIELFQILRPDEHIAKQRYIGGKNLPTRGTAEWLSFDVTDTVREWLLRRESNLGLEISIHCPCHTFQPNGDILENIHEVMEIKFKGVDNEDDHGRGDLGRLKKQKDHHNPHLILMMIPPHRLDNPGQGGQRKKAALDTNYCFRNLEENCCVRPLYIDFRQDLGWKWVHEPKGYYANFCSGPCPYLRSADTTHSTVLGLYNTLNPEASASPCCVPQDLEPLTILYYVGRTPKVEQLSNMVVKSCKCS
T1 chain 2: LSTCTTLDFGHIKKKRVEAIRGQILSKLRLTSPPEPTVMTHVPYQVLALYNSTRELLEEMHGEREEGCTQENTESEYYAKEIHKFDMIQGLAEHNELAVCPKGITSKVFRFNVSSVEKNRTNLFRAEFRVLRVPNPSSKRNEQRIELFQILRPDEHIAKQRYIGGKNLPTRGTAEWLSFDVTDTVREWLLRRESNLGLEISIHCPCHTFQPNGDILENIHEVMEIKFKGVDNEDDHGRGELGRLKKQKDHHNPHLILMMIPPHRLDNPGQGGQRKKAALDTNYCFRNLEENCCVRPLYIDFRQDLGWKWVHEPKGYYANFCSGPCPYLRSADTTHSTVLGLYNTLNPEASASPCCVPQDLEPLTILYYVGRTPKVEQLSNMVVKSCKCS
T1 chain 3: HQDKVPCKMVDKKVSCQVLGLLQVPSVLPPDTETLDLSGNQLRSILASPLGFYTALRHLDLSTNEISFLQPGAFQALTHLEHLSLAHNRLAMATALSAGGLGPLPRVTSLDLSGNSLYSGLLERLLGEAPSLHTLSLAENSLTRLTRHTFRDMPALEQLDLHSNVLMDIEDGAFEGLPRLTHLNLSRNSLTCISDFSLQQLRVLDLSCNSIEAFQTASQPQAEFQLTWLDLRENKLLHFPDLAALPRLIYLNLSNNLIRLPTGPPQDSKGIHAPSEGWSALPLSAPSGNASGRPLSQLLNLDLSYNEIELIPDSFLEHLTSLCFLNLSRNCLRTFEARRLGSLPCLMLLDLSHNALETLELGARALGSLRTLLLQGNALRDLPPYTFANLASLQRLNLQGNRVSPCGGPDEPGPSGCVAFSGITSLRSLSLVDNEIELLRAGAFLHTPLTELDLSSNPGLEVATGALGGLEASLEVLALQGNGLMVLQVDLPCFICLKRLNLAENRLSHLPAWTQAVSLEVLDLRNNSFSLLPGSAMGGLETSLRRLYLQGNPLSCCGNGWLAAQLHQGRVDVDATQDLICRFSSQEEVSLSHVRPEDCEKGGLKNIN
In words: mass photometry; L-TGF-β3/GARP with αvβ8; TBS with 1 mM CaCl2, 1 mM MgCl2. The conditions noted are these: both partners purified.

For assay [3], the target named is L-TGF-β1/GARP (secreted complex of latent TGF-β1 with the GARP ectodomain) (human) (UniProt Q14392). In words: mass photometry + cryo-EM structure; L-TGF-β1/GARP mixed with recombinant αvβ8 ectodomain at 1:1 molar ratio; mass photometry in TBS with 1 mM CaCl2, 1 mM MgCl2.

The molecule “L-TGF-β1 (latent TGF-β1 dimer, R249A, as it stands in L-TGF-β1/GARP) (natural protein)” returned a stoichiometry N in assay [1] of 2.

B1: secreted ectodomain of αvβ8 integrin (receptor)
chain 1: FNLDVDSPAEYSGPEGSYFGFAVDFFVPSASSRMFLLVGAPKANTTQPGIVEGGQVLKCDWSSTRRCQPIEFDATGNRDYAKDDPLEFKSHQWFGASVRSKQDKILACAPLYHWRTEMKQEREPVGTCFLQDGTKTVEYAPCRSQDIDADGQGFCQGGFSIDFTKADRVLLGGPGSFYWQGQLISDQVAEIVSKYDPNVYSIKYNNQLATRTAQAIFDDSYLGYSVAVGDFNGDGIDDFVSGVPRAARTLGMVYIYDGKNMSSLYNFTGEQMAAYFGFSVAATDINGDDYADVFIGAPLFMDRGSDGKLQEVGQVSVSLQRASGDFQTTKLNGFEVFARFGSAIAPLGDLDQDGFNDIAIAAPYGGEDKKGIVYIFNGRSTGLNAVPSQILEGQWAARSMPPSFGYSMKGATDIDKNGYPDLIVGAFGVDRAILYRARPVITVNAGLEVYPSILNQDNKTCSLPGTALKVSCFNVRFCLKADGKGVLPRKLNFQVELLLDKLKQKGAIRRALFLYSRSPSHSKNMTISRGGLMQCEELIAYLRDESEFRDKLTPITIFMEYRLDYRTAADTTGLQPILNQFTPANISRQAHILLDCGEDNVCKPKLEVSVDSDQKKIYIGDDNPLTLIVKAQNQGEGAYEAELIVSIPLQADFIGVVRNNEALARLSCAFKTENQTRQVVCDLGNPMKAGTQLLAGLRFSVHQQSEMDTSVKFDLQIQSSNLFDKVSPVVSHKVDLAVLAAVEIRGVSSPDHVFLPIPNWEHKENPETEEDVGPVVQHIYELRNNGPSSFSKAMLHLQWPYKYNNNTLLYILHYDIDGPMNCTSDMEINPLRIKISSLQTTEKNDTVAGQGERDHLITKRDLALSEGDIHTLGCGVAQCLKIVCQVGRLDRGKSAILYVKSLLWTETFMNKENQNHSYSLKSSASFNVIEFPYKNLPIEDITNSTLVTTNVTWGIQPAPMPV
chain 2: EDNRCASSNAASCARCLALGPECGWCVQEDFISGGSRSERCDIVSNLISKGCSVDSIEYPSVHVIIPTENEINTQVTPGEVSIQLRPGAEANFMLKVHPLKKYPVDLYYLVDVSASMHNNIEKLNSVGNDLSRKMAFFSRDFRLGFGSYVDKTVSPYISIHPERIHNQCSDYNLDCMPPHGYIHVLSLTENITEFEKAVHRQKISGNIDTPEGGFDAMLQAAVCESHIGWRKEAKRLLLVMTDQTSHLALDSKLAGIVVPNDGNCHLKNNVYVKSTTMEHPSLGQLSEKLIDNNINVIFAVQGKQFHWYKDLLPLLPGTIAGEIESKAANLNNLVVEAYQKLISEVKVQVENQVQGIYFNITAICPDGSRKPGMEGCRNVTSNDEVLFNVTVTMKKCDVTGGKNYAIIKPIGFNETAKIHIHRNCSCQCEDNRGPKGKCVDETFLDSKCFQCDENKCHFDEDQFSSESCKSHKDQPVCSGRGVCVCGKCSCHKIKLGKVYGKYCEKDDFSCPYHHGNLCAGHGECEAGRCQCFSGWEGDRCQCPSAAAQHCVNSKGQVCSGRGTCVCGRCECTDPRSIGRFCEHCPTCYTACKENWNCMQCLHPHNLSQAILDQCKTSCALMEQQHYVDQTSECFSSPSYLR
notes: integrin αv, truncated (αvtr pcDM8), secreted ectodomain; integrin β8, truncated (β8tr), secreted ectodomain; also called αvβ8tr; truncated αvβ8 ectodomain; source: ExpiCHO, transfected, purified from supernatant (Protein G crosslinked with antibody 8B8, SEC on Superose 6)
On to B1, for which the “stoichiometry N” value in assay [2] was 1 and 2; in assay [3] it was 1 and 2.
